In patent EP3988566A1:

Target: soluble polymeric amyloid beta (UniProt P05067)
Assay: ELISA, plate coated with amyloid oligomer (55 µg/ml), anti-mouse IgG-AP detection

Chain of soluble polymeric amyloid beta (P05067 672-713): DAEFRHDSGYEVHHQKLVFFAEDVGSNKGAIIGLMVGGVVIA

O.D. at 0.078 ug/ml antibody: 0.652 O.D.
O.D. at 0.156 ug/ml antibody: 1.04 O.D.
O.D. at 0.312 ug/ml antibody: 1.72 O.D.
O.D. at 0.625 ug/ml antibody: 2.81 O.D.
B1: mouse monoclonal antibody ACI-01-Ab7C2 (antibody, mouse IgG2b, V domains shown)
VH: EVQLVESGGGLVQPGGSLKLSCAASGFTFSSYGMSWVRQTPDKRLELVASINSNGGSTYYPDSVKGRFTISRDNAKNTLYLQMSSLKSEDTAMYYCASGDYWGQGSTLTVSS
VL: DVVMTQTPLSLPVSLGDQASISCRSSQSLVYSNGDTYLHWYLQKPGQSPKLLIYKVSNRFSGVPDRFSGSGSGTDFTLKISRVEAEDLGVYFCSQSTHVPWTFGGGTKLEIK
